Reference: publication PMC12197871 (Protein Science : A Publication of the Protein Society, 2025)
Changes are numbered by the printed parent chain.

B1: Gln189Leu: GsLDH single mutant Gln189Leu, located at the dimer–dimer interface (protein, UniProt P00344 1-317, looked up, variant Q189L)
L-lactate dehydrogenase: MKNNGGARVVVIGAGFVGASYVFALMNQGIADEIVLIDANESKAIGDAMDFNHGKVFAPKPVDIWHGDYDDCRDADLVVICAGANQKPGETRLDLVDKNIAIFRSIVESVMASGFQGLFLVATNPVDILTYATWKFSGLPHERVIGSGTILDTARFRFLLGEYFSVAPQNVHAYIIGEHGDTELPVWSLAYIGVMPIRKLVESKGEEAQKDLERIFVNVRDAAYQIIEKKGATYYGIAMGLARVTRAILHNENAILTVSAYLDGLYGERDVYIGVPAVINRNGIREVIEIELNDDEKNRFHHSAATLKSVLARAFTR
B2: WT: wild‐type L‐lactate dehydrogenase from Geobacillus stearothermophilus (UniProt P00344), N‐terminal His‐tagged (protein, UniProt P00344 1-317, looked up)
L-lactate dehydrogenase: B1 L-lactate dehydrogenase with L189Q
modifications: N-terminal His-tag
B3: Triple mutant: previously reported GsLDH triple mutant with substitutions Arg104Cys, Gln189Leu and Asn293Ser (protein, UniProt P00344 1-317, looked up, variant R104C Q189L N293S)
L-lactate dehydrogenase: B1 L-lactate dehydrogenase with R104C, N293S

Target: GsLDH (Geobacillus stearothermophilus, UniProt P00344)
Assay: GsLDH kinetic studies
Assay type: biochemical

Sequence of GsLDH (P00344 whole entry): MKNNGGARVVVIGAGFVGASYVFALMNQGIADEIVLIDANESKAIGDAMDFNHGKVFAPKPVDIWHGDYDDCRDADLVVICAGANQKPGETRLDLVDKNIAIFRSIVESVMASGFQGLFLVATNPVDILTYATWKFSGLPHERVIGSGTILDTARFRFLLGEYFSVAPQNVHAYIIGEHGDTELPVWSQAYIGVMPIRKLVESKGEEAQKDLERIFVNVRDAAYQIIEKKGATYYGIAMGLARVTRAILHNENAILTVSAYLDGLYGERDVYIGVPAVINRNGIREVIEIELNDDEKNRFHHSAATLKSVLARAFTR

Row | Molecule | fold higher substrate inhibition (lower K i) compared to the WT (with FBP) | k cat (with FBP (5 mM)) | k cat/K m or k cat/K 0.5 (with FBP (5 mM)) | k cat (without FBP) | k cat/K m or k cat/K 0.5 (without FBP) | n (Hill coefficient) (without FBP)
1 | B1 | 20 fold | 83 s⁻¹ | 106000 ± 19000 M⁻¹ s⁻¹ | 73 ± 12 s⁻¹ | 32000 ± 4000 M⁻¹ s⁻¹ | 1.4 ± 0.1
2 | B2 | – | 64 s⁻¹ | 144000 ± 67000 M⁻¹ s⁻¹ | 118 ± 34 s⁻¹ | 43000 ± 13000 M⁻¹ s⁻¹ | 1.5 ± 0.1
3 | B3 | – | 94 s⁻¹ | 156000 ± 59000 M⁻¹ s⁻¹ | 57 ± 8 s⁻¹ | 141000 ± 18000 M⁻¹ s⁻¹ | –
